Measurements from patent US20210002656.

Target: T1, I-SceI (UniProt P03882)
T1 sequence: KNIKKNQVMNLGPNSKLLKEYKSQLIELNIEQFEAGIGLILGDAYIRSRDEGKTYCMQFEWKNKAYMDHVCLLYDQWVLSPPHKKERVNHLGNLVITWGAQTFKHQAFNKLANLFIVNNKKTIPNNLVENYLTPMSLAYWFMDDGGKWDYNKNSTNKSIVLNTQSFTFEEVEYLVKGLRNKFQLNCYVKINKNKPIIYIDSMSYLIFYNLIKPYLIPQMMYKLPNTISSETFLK
Assay: cell_activity
Settings: protein delivered to N. tabacum protoplasts, SSA assay; 0.49% when delivered as DNA; 2.4% sequential delivery

I-SceI site in YFP SSA plasmid
activity: 4.4 % YFP
